Here are results for 1 molecule from patent US20090092600A1 (Dana-Farber, published 2009).

In the assay the target is T1, GST (glutathione-S-transferase) (UniProt P08515 1-218 = GST).
T1 construct: Control protein in the GST pull-down
In words: GST pull-down on glutathione beads, immunoblot with anti-His or anti-MUC1-C. The method, then: The binding of MUC1 to HSF1 could be direct or indirect, for example, through a third protein. To determine if the interaction between MUC1 and HSF1 is a direct, physical interaction, in vitro binding assays was performed. GST- and GST-STAT3 polypeptides were incubated with purified His-tagged MUC1-CD (similar to GST-HSF1-His-MUC1 experiments described above). The protein mixtures were then incubated with glutathione beads, which bind to the GST proteins and associated binding partners if present. The glutathione bead adsorbates were washed and immunoblotted with antibodies specific for His tags or to MUC1-C (as described above). His-tagged MUC1 was present in GST-STAT3 adsorbates but not GST-adsorbates.
On the technique in general: A western blot detects proteins with antibodies after separation by electrophoresis.

T1 sequence (P08515 whole entry): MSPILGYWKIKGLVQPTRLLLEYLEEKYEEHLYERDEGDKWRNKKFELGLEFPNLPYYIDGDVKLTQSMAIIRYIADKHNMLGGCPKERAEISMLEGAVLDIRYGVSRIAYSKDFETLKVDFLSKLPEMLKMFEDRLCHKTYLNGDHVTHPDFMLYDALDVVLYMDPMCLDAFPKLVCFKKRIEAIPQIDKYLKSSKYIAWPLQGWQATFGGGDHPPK

B1: His-tagged MUC1-CD (MUC1 cytoplasmic domain) (other)
chain: CQCRRKNYGQLDIFPARDTYHPMSEYPTYHTHGRYVPPSSTDRSPYEKVSAGNGGSSLSYTNPAVAAASANL
notes: Purified recombinant protein; also called His-MUC1; not shown: His tag
Turning to B1, the binding result is “no binding”.
